According to a protein production outcome set (Wang et al. 2014):

Assay: label from the status in PepcDB records

**Q.** With “MLSINPNEQTEKDNYKLLTGSIIPRPVAFVTSVTKEGVLNGAPYSYFNIVAANPPLISVSVQRKAGERKDTSRNAIEKGEFVVHISDESYVAAINETAANLPPNESEIELAKLTPIESEVISVPGVKEANIRMECVLERAIPLGGTEDSPACDLLIGRVVRFHVAEHLYEKGRIHAEGLKPISRLAGHNYAKLGEQFELVRPI” as the sequence, how does the protein production read?
**A.** Its protein production is “not failed”.

**Q.** For “MFSPEQIAGKDVRLLRIKKEGSLDLALEGGVDSPVGKVVVSAVYEGGAAERHGGVVKGDEIMAINGKIVTDYTLAEAEAALQKAWNQGGDWIDLVVAVCPPKEYDDELTFF”, which protein production is on record?
**A.** Its protein production is “not failed”.

**Q.** With “MNNIRQLTKDEYPKAIELSWQVFTITGKEDFNNEGLEFFKSFIYNKKCINEIIFYGSFDNEALTGILGIKSNGKHISLFFIKPEYHRHGLGKKLFHYASTLHPSIETTVNSSTYAIPFYRSLGFAVVGEKQNYHGLCSTPMRRYHAVFVQKNKYTLRTWQTEDAHSLVQELNNKKIWDNCRNVFPHPYRLEHAETFIDLIQKKEGIHDFCIEVNGKAVGNIGFTPGTDVECFNAEVGYVIGEKYWNQGIVTDALQEAIYHYFTYTNTIRIFALVFEHNLPSMRVLEKAGFNKVGIMTKSIFKNGHFTNAHLFELLKNVLEHHHHHH” as the sequence, how does the protein production read?
**A.** The protein production was “failed”.

**Q.** For “MVLLIVDGIIVAISAIAFSPDTVMYSILSLYVVSLTIDKMMVGLNSSRNLLIISQKSDQILNYITNGADRGATKIPVLGGHTGHSQNMIMTTLSTHEVPKVQEEIQKIDETAFIVIIPASTVMGRGFSLQKDYKSVPNDFINPL”, which protein production is on record?
**A.** Its protein production is “failed”.

**Q.** Which protein production does the source give for “INYYDTYIKTCLDNLKRKNTRRSIKLDGKGEPKGAKRAKPVKYTAAKLHEKGVLLDIDDLQTNQFKNVTFDIIATEDVGIFDVRSKFLGVEMEKVQLNIQDLLQMQYEGVAVMKMFDKVKVNVNLLIYLLNKKFYGK” here?
**A.** Its protein production is “failed”.

**Q.** For “MDAKEVSAHWESNAETWTMLSRAGHDRYRDTLNTPAFLAMLPPVAGLKGLDLGCGEGTNTRTVARLGASMTGLDIAPTFLRHARDAERRDPLGIDYVLGDGLTLPFADRSFDFVTAFMSMMDMVDQAAVLREVARVLKPGGFLQFSILHPCFVPPTRRNIRDAEGAPVAVEVADYFDESDGRVERWLFSSISAEQQAALTPFAVPRFHRTLSTWVAMIVGARLSIEAFGEPRASEEVAAAEPIVADTRVAPIFLHVLAKRPTTP”, which protein production is on record?
**A.** The protein production was “failed”.

**Q.** With “MKTEMTNVDISVAVSELQKVINGKLDKAFLVNNQDGKELILKVHIPEIGSREIAIGLGKYKYMTLTEYEREKPRNPPSFVMLLRKHLKNIKITSVAQHNFDRIVIFNFEWNELKYKLIIELFGDGNAILLDSEDKIILPLKIERWSTRKIVPKEIYKFPPQKDLDPKNLDYSLAKKLFIEEFEKEENKDTEVVRIISRTFGLAGVYSEEICLNSEIDKNLKNPKNEEIEKLFEGSKSFFKKVFGELKPKSTLKNGEFVNIDPIDLKIHENLKENEIKHYESFLTALDEYFSRFIMKKEIKQAESKLQKLVKKQERILKSQLDTKDKYEKQSVSNHKRGDLIYANYSLVDEIVSTIKDAREKMDWNGIKNVIKENKTHPILSKIINVNEKNAELTLKLSADYGNGLIEDSVPVDLRKNAFENADIVYQKSKKFKNKVQGVIEALKISEKKLAELKEKEKLDSEVFKEKEEKIKKKERK” as the sequence, how does the protein production read?
**A.** The protein production was “failed”.

**Q.** For “MPKKGSRPDRPSRRCARMTSTVPALGTRSAEGSALQAVLLDMDGTLVDTEGFWWDVEAEVFAALGHPLDESWRHVVVGGPMARSAGFLIEATGADITLAELTVLLNDGFEARIGRTLPLMPGAARLLAELAAHEIPTALVSASHRRIIDRVLTSLGSQHFALTVAGDEVARTKPFPDPYLLAASGLGAEPARCAVIEDTATGVAAAEAAGCRVVAVPSVAPIAPAARRTVVTSLEEVDLPFLRGLMTEMR”, which protein production is on record?
**A.** The protein production was “failed”.

**Q.** With “MEQLIFKQTYKKIEPFILLLNGLLLAAAISIVHIVGMHAYHLFEAASSNVPLITLAFGISAVLSSVAIWLTSRFTLPIFRLILSSVIMGIGISASYYVSMLGWNIDIYKKDYTSFLILFSVLIAMSGSGLAFLLAYKLKESERHRISLKLAFAVMMTLSIMGMHYTALISTNITDKFVSQYQAEHDLLLFTIILVTCLVLVASFIVAVLEQRLNQRNLELRKANKELANLSIQDNLTKLPNRLYLVDYAEVLLSDHRYKDQKIAFLYIDLDRFKSVNDAFGHHIGDQLLIQMANRLHWQLNEKCKLLRIGGDEFLLIAENTDTEEAMQLAEKVLHLIQDSYQISGKEINISASLGIALFPEHGQNVQDLLMNADAAMLMSKEQGRNTYTVFSYSTHQQETRSQSKLINDLYKAVEEKQFVLYYQPKFNTNLEICGVEALIRWNHPSLGMLTPHMFIGGAEKTGLIIPMGYWALEQACQQIQEWERSNTQFYPIAVNLSALQFENKKLFSTLEGLLKKYQIQPHHLIIEITESTAMRHIDLSIRACERLRDMGIRVAIDDFGTGHSSFLYLKDLPVDELKIDRGFIVDLKPGSKEEVILESIIHLAKKLGLTVTAEGVETQQQVEILTRLGCQQFQGYLLGMPVNVGQLIQSQGAHFV” as the sequence, how does the protein production read?
**A.** Its protein production is “failed”.

**Q.** With “MANSETSLQARLWKTLSQSPDVRLWRNNVGTCKAADGRFVRFGLCPGSSDLIGLTRVTITPDMVGQTIALFTAIEVKTPTGRVTPEQQSFIDFVQRSGGRAGVARSMQDANKIISGEGHVLEHHHHHH” as the sequence, how does the protein production read?
**A.** Its protein production is “failed”.

**Q.** For “MAAKKDYYAILGVPRNATQEEIKRAYKRLARQYHPDVNKSPEAEEKFKEINEAYAVLSDPEKRRIYDTYGTTEAPPPPPPGGYDFSGFDVEDFSEFFQELFGPGLFGGFGRRSRKGRDLRAELPLTLEEAFHGGERVVEVAGRRVSVRIPPGVREGSVIRVPGMGGQGNPPGDLLLVVRLLPHPVFRLEGQDLYATLDVPAPIAVVGGKVRAMTLEGPVEVTIPPRTQAGRKLRLRGKGFPGPAGRGDLYLEVRITIPERLTPEEEALWKKLAEAYYARA”, which protein production is on record?
**A.** Its protein production is “failed”.

**Q.** For “MSDDLMHEPDAAQAILPPGFLKNPVHLLAFGFGSGAAPRAPGTWGSLAAIPLWYAFSWLPPAAYWLVVLAAFLVGIWLCGKTAADLKVHDHGGIVWDEFVGMWIALGLFPDQLYGVLMAFMLFRLFDVWKPWPINWLDERLPGGLGIMVDDVVAGAMALGCLWAIDVWVMPYIV”, which protein production is on record?
**A.** The protein production was “failed”.

**Q.** For “MSLPTFRIIGFIIGIFLITLAVAMIVPMATLVIYDRFEDLRSFLWASAITFIAGLALVVPGRPDNVQLRPRDMYMLTVSSWIVVCIFAALPFLLTQHISYTDSFFESMSGITATGSTVLSHLDSMSPGILIWRSMLHWLGGIGFIGMAVAILPLLRIGGMRLFQTESSDRSEKVMPRSHMVAKFIVLAYVGFTALGSLAFWAAGMSLFDAINHAMSAISTGGFSTSDLSLARWPQPAVHWVAIVVMILGSLPFTLYVATLRGNRKALIKDEQVQGLIGLLLITWLVMTVWYANTTDLPWTEALRHVALNVTSVVTTTGFALGDYSLWGNFSLMLFFYLGFIGGCSGSTAGGVKIFRFQVAYILLKTNLNQLIHPRAVMKQKYNGHRLDDEIVRSILTFSFFFTITICLIALMLSLLGLDWMTALTGAASTVSGVGPGLGEVIGPAGNFSTLPDAAKWILSGGMLLGRLEIITVLVLCVPAFWRH”, which protein production is on record?
**A.** The protein production was “failed”.

**Q.** For “MTDRQLIVLAALNIMVAVGAGAFGAHGLRRVVDPTLLAIWHTGVLYHLIHALGLFVVALLGARFGSPLLSMAGLVMFIGILLFCGSLYVLVLTGTRWLGAVTPLGGVAFLAAWAMVAWAAWRAPA”, which protein production is on record?
**A.** The protein production was “failed”.

**Q.** For “MTWSHWEITPFITSVFFILGVLTLFWVSQNWIINFFNTHHWRVDQSLITDWYGLIYMMLFVFGMQTAVVGQNDAWIFMNFQLIGLTFCGYFLNVRVRYYYLYPLVFIFMGFNHSLYYWESWGHAVTLILFFTALGRLRKHVPLQTKQGQVTLYLVTCAGFGAVLWWFMKLKFNLSWATYWQEWTYLLVFASLLYIYASMLSANAHLKQNLVAFANHDALTKIENFAAYKTAINYQVTSSRKNGSQLTMLMFDIDHFKQVNDTYGHLAGDKILQHVAQVATIVFHANNPQISLYRTGGEEFNVIFPNYDLTEALAVAEQLFAAINHIAVPVNDHQIQLSISIGLSELAADDQSPTAFYQRVDANLYHSKKHGRMQITAK”, which protein production is on record?
**A.** Its protein production is “failed”.
